Measurements taken from patent US7560106B2, “Rationally designed heparinases derived from heparinase I and II and methods of sequencing therewith” (Massachusetts Institute of Technology, priority 1998, dated 2009).

Legend:
heparinase I [1] = target: T1, heparinase I (Pedobacter heparinus, UniProt Q05819); assay: Effect of lanthanides on heparinase I activity (232 nm assay); assay type: biochemical, Flavobacterium heparinum; conditions: 15 minutes preincubation; 4 mg/mL heparin, 5 mM calcium, pH 6.5
heparinase I [2] = target: T1, heparinase I; assay type: binding, Flavobacterium heparinum
heparinase I [3] = target: T1, heparinase I; assay type: biochemical, Flavobacterium heparinum; conditions: 30 minutes preincubation, 50 μM WRK, pH 7
[4] = Heparinase I activity as a function of calcium concentration (K0.5, calcium dependence); assay type: biochemical
Procedure, shortened: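 Heparinase I mutant activity was measured by UV absorbance at 232 nm in 100 mM MOPS, pH 7.0, with calcium varied from 0 to 10 mM. Activity is given as IU (μmol product/min) using ε=−3800 M^−1cm^−1.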

[5] = Processivity of heparinase I on heparin; assay type: biochemical
[6] = absence of calcium; shown previously; cited from earlier work
[7] = Exhaustive digest and HPLC analysis of saccharide products of heparinase II and mutants, heparin substrate; conditions: exhaustive digest 18 hours at 30° C.
Protocol: HPLC Analysis of Saccharide Products of Heparinase II Activity. Heparin or heparan sulfate was degraded by heparinase II or one of the recombinant heparinases for 18 h at 30° C. The reaction was stopped by boiling and the samples were injected onto a POROS Q/M (4.6×100 mm) anion-exchange column connected to a BIOCAD system (PerSeptive Biosystems, Framingham, Mass.) (Godavarti, R., and Sasisekharan, R (1996c) Biochem. Biophys. Res. Comm. 229, 770-777). A salt gradient of 0-2 M NaCI in 10 mM Tris pH 7.0 was run and products were monitored at 232 nm.
Exhaustive digests of both 4 mg/ml heparin and 2 mg/ml heparan sulfate were completed and the resulting products analyzed with a Perfusion Chromatography system in a fashion similar to the analysis completed for heparinase I (Godavarti, R., and Sasisekharan, R (1996c) Biochem. Biophys. Res. Comm. 229, 770-777). Running buffer used as 10 mM Tris, pH 7.0 and the salt gradient was 0-2 M NaCl over the course of ten minutes.
After purification, each of these four wild-type and mutant enzymes was characterized via exhaustive (i.e., 18 hours at 30° C.) substrate digests to determine product profiles. Perfusion chromatography profiles of the desaccharide products of the three cysteine mutants and the r-heparinase II were analyzed using either heparin and heparan sulfate as the substrate.

## [Lu+3] [Lu^3+, lutetium]
Heparinase I [1]
  IC50: 212 µM

## [Tb+3] [terbium]
Heparinase I [1]
  IC50: 39 µM
Heparinase I [2]
  terbium equivalents at which fluorescence intensity stops increasing: 10 equivalents

## [Ca+2] [calcium]
Heparinase I [3]
  K0.5 of protection from WRK-mediated inactivation: 980 µM
Heparinase I [2]
  calcium concentration sufficient to compete with terbium for binding to heparinase I: 2 mM

B1: heparinase I: 42,500 Da enzyme from the periplasm of F. heparinum that degrades heparin-like glycosaminoglycans (protein, listed as Flavobacterium heparinum)
chain: MKKQILYLIVLQQLFLCSAYAQQKKSGNIPYRVNVQADSAKQKAIIDNKWVAVGINKPYALQYDDKLRFNGKPSYRFELKAEDNSLEGYAAGETKGRTELSYSYATTNDFKKFPPSVYQNAQKLKTVYHYGKGICEQGSSRSYTFSVYIPSSFPDNATTIFAQWHGAPSRTLVATPEGEIKTLSIEEFLALYDRMIFKKNIAHDKVEKKDKDGKITYVAGKPNGWKVEQGGYPTLAFGFSKGYFYIKANSDRQWLTDKADRNNANPENSEVMKPYSSEYKTSTIAYKMPFAQFPKDCWITFDVAIDWTKYGKEANTILKPGKLDVMMTYTKNKKPQKAHIVNQQEILIGRNDDDGYYFKFGIYRVGNSTVPVTYNLSGYSETAR
[4]
  activity in 2 mm Ca++ relative to absence of calcium: ~10 ×
  increase in activity upon introduction of millimolar concentrations of calcium: five-fold increase in activity
[5]
  processivity: ~90%
[6]
  salt concentration of elution from heparin-POROS column: around 500 mM

B2: C189A: heparinase II cysteine to alanine mutant at position 189 (protein, UniProt C6XZB6 26-772, looked up, variant C189A)
Heparin and heparin-sulfate …: QTKADVVWKDVDGVSMPIPPKTHPRLYLREQQVPDLKNRMNDPKLKKVWADMIKMQEDWKPADIPEVKDFRFYFNQKGLTVRVELMALNYLMTKDPKVGREAITSIIDTLETATFKPAGDISRGIGLFMVTGAIVYDWCYDQLKPEEKTRFVKAFVRLAKMLEAGYPPVKDKSIVGHASEWMIMRDLLSVGIAIYDEFPEMYNLAAGRFFKEHLVARNWFYPSHNYHQGMSYLNVRFTNDLFALWILDRMGAGNVFNPGQQFILYDAIYKRRPDGQILAGGDVDYSRKKPKYYTMPALLAGSYYKDEYLNYEFLKDPNVEPHCKLFEFLWRDTQLGSRKPDDLPLSRYSGSPFGWMIARTGWGPESVIAEMKVNEYSFLNHQHQDAGAFQIYYKGPLAIDAGSYTGSSGGYNSPHNKNFFKRTIAHNSLLIYDPKETFSSSGYGGSDHTDFAANDGGQRLPGKGWIAPRDLKEMLAGDFRTGKILAQGFGPDNQTPDYTYLKGDITAAYSAKVKEVKRSFLFLNLKDAKVPAAMIVFDKVVASNPDFKKFWLLHSIEQPEIKGNQITIKRTKNGDSGMLVNTALLPDAANSNITSIGGKGKDFWVFGTNYTNDPKPGTDEALERGEWRVEITPKKAAAEDYYLNVIQIADNTQQKLHEVKRIDGDKVVGVQLADRIVTFSKTSETVDRPFGFSVVGKGTFKFVMTDLLPGTWQVLKDGKILYPALSAKGDDGALYFEGTEGTYRFLR
[7]
  degradation product profile, heparin substrate: closely matched those of both r-heparinase II and native heparinase II

B3: C348A: heparinase II cysteine to alanine mutant at position 348 (protein, UniProt C6XZB6 26-772, looked up, variant C348A)
Heparin and heparin-sulfate …: QTKADVVWKDVDGVSMPIPPKTHPRLYLREQQVPDLKNRMNDPKLKKVWADMIKMQEDWKPADIPEVKDFRFYFNQKGLTVRVELMALNYLMTKDPKVGREAITSIIDTLETATFKPAGDISRGIGLFMVTGAIVYDWCYDQLKPEEKTRFVKAFVRLAKMLECGYPPVKDKSIVGHASEWMIMRDLLSVGIAIYDEFPEMYNLAAGRFFKEHLVARNWFYPSHNYHQGMSYLNVRFTNDLFALWILDRMGAGNVFNPGQQFILYDAIYKRRPDGQILAGGDVDYSRKKPKYYTMPALLAGSYYKDEYLNYEFLKDPNVEPHAKLFEFLWRDTQLGSRKPDDLPLSRYSGSPFGWMIARTGWGPESVIAEMKVNEYSFLNHQHQDAGAFQIYYKGPLAIDAGSYTGSSGGYNSPHNKNFFKRTIAHNSLLIYDPKETFSSSGYGGSDHTDFAANDGGQRLPGKGWIAPRDLKEMLAGDFRTGKILAQGFGPDNQTPDYTYLKGDITAAYSAKVKEVKRSFLFLNLKDAKVPAAMIVFDKVVASNPDFKKFWLLHSIEQPEIKGNQITIKRTKNGDSGMLVNTALLPDAANSNITSIGGKGKDFWVFGTNYTNDPKPGTDEALERGEWRVEITPKKAAAEDYYLNVIQIADNTQQKLHEVKRIDGDKVVGVQLADRIVTFSKTSETVDRPFGFSVVGKGTFKFVMTDLLPGTWQVLKDGKILYPALSAKGDDGALYFEGTEGTYRFLR
modifications: heparinase II
[7]
  degradation product profile, heparin substrate: completely inactive
